# Measurements: paper PMC4837482, “The complex binding mode of the peptide hormone H2 relaxin to its receptor RXFP1” (Nature Communications, 2016)
# Where no end group is shown, it is not given here. The star is where a group is joined. DTPA = O=C(O)CN(CCN(CC(=O)O)CC(=O)O)CCN(CC(=O)O)CC(=O)*
# T1: RXFP1 F54A/Y58A (Homo sapiens, UniProt Q9HBX9, F76A/Y80A)
# T1 construct: cells expressing full-length RXFP1 and mutants; expressed in transfected cells; host or cells: HEK293T
# T1 sequence (Q9HBX9 23-757 F76A/Y80A limits assumed): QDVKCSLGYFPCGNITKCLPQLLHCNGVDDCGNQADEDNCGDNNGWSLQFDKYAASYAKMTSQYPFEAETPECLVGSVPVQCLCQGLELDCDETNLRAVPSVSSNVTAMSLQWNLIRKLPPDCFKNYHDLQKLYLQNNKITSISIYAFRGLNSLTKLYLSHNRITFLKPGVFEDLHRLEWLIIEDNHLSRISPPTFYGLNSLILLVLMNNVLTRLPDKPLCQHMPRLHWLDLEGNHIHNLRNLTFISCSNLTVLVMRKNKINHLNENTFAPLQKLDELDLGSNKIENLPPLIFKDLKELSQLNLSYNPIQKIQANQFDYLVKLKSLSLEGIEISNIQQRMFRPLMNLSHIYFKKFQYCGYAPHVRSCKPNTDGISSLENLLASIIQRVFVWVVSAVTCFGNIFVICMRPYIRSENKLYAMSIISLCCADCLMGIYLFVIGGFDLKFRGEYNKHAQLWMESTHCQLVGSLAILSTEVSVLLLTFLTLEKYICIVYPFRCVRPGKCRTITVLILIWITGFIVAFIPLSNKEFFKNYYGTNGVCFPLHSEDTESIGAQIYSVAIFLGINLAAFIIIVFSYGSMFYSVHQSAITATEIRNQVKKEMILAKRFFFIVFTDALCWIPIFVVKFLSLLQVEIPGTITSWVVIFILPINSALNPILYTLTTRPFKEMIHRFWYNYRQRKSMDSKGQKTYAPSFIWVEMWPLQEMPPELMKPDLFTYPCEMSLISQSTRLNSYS
# T2: RXFP1 F50A (Homo sapiens, UniProt Q9HBX9, F72A)
# T2 construct: expressed in transfected cells; host or cells: HEK293T
# T2 sequence (Q9HBX9 23-757 F72A limits assumed): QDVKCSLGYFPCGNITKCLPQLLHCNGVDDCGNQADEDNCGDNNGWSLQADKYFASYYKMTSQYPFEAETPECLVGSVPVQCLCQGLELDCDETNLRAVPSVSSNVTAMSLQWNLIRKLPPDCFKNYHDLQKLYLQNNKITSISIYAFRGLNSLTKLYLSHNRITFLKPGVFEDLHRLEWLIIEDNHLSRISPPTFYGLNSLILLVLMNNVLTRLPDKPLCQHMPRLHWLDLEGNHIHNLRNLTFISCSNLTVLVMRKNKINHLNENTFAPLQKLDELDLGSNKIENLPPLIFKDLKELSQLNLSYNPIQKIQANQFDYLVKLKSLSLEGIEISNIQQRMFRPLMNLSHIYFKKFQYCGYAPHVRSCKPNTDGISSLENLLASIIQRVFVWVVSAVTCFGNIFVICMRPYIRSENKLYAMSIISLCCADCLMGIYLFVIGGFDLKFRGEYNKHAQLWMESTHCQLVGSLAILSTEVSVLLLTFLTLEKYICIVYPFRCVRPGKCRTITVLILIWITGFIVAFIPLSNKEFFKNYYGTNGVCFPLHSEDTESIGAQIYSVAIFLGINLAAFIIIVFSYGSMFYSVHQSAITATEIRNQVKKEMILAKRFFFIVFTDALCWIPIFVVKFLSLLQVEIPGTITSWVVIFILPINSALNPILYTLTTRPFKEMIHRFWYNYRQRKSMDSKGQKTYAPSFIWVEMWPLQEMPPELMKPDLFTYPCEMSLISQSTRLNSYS
# B1: Europium-labelled H2 relaxin (ligand, human)
# chain 1: {DTPA}-QLYSALANKCCHVGCTKRSLARFC
# chain 2: DSWMEEVIKLCGRELVRAQIAICGMSTWS
# modifications: not fully specified; ends and bridges not checked; also: DTPA cage loaded with Eu^3+
# notes: A chain of human gene-2 (H2) relaxin; numbers count on: the A chain; B chain of human gene-2 (H2) relaxin; numbers count on: the B chain; also called Eu-H2 relaxin; Eu-H2
# Columns and labels:
# RXFP1 F54A/Y58A = target: T1, RXFP1 F54A/Y58A; test: Eu-H2 relaxin saturation binding assay, transfected HEK293T cells; details: F54A/Y58A RXFP1 versus wild-type RXFP1
# RXFP1 F50A = target: T2, RXFP1 F50A; test: as above; details: F50A RXFP1 versus wild-type RXFP1
# [1] = target: RXFP1 S47A/L48A, full length (human); test: europium-labelled ligand saturation binding on cells (time-resolved fluorescence); HEK293T cells transiently transfected with receptor, 96-well plates; increasing Eu-H2 relaxin (maximum 15 nM) with or without 1 μM unlabelled H2 relaxin, 1 h, room temperature; 20 mM HEPES pH 7.5, […] CaCl2, 50 mM NaCl, 0.01% NaN3, 1% BSA; one-site fit
# [2] = target: RXFP1 G41A, full length (human); test: as above
# [3] = target: RXFP1 A55L, full length (human); test: as above
# [4] = target: RXFP1 D42A, full length (human); test: as above
# [5] = target: RXFP1 M60A, full length (human); test: as above
Molecule,loss in H2 relaxin binding (RXFP1 F54A/Y58A),loss in H2 relaxin binding (RXFP1 F50A),Kd [1],Kd [2],Kd [3],Kd [4],Kd [5]
H2 relaxin: two-chain 6-kDa peptide hormone structurally related to insulin; recombinant human gene-2 H2 relaxin provided by Corthera,tenfold,tenfold,–,–,–,–,–
B1,–,–,0.43 nM,0.95 nM,1.54 nM,20.7 nM,1.08 nM
